The source of these data is the supplement of paper PMC10598134.

± gives the standard deviation.

This data set is described as follows: collision cross section of unmodified peptide (TIMS, N2, iRT-aligned); higher = larger / more extended gas-phase ion. The procedure: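 Unmodified synthetic counterpart peptides (ProteomeTools / JPT), analysed by nanoLC-TIMS-QTOF (dda-PASEF). 1/K0 was aligned run-wise to spiked iRT peptides and converted to CCS in N2 (Mason-Schamp). Values are the mean of 1-3 technical replicates for the most abundant feature at each charge state. The same unmodified peptide is repeated across rows and is averaged.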

For ATVASSTQKFQDLGVK, the collision cross section reads like this: (charge state: 2) 459.73 ± 1.9 Å²; (charge state: 3) 485.98 ± 5 Å².

On to QGNAVTLGDYYQGR, for which the collision cross section (charge state: 2) turned out to be 415.78 ± 0.66 Å².

For DSLGVSFPEELACK, the collision cross section (charge state: 2) was determined as 418.18 ± 0.66 Å².

Consider LPTTAASTPDAVDK, for which the collision cross section (charge state: 2) is listed as 396.7 ± 0.66 Å².

For the sequence VTRYPILGIPQAHR, the collision cross section (charge state: 3) was found to be 523.45 ± 1.1 Å².

Turning to SVGGSGGGSFGDNLVTR, the collision cross section (charge state: 2) was determined as 413.69 ± 1.1 Å².

Sequence PGGEGPQCEKTTDVK showed a collision cross section (charge state: 2) of 411.04 ± 2 Å² and a collision cross section (charge state: 3) of 465.58 ± 3.8 Å².

For the setting “charge state: 2”, LDYSDFQIVK had a collision cross section of 368.99 ± 0.6 Å².

SALAAAQTQVAEYK: where the note is “charge state: 2”, the collision cross section stood at 422.48 ± 1.1 Å².

TEVNSGFFYK returned a collision cross section (charge state: 2) of 366.57 ± 0.48 Å².

For GVPRGVHLGSQGLQR, the collision cross section reads like this: (charge state: 2) 424.25 Å²; (charge state: 3) 484.7 ± 1.8 Å².

On to LGDVYVNDAFGTAHR, for which the collision cross section by setting is: (charge state: 2) 434.69 ± 0.66 Å²; (charge state: 3) 501.14 ± 0.88 Å².

Consider IVFSGNLFQHQEDSKK, for which the collision cross section (charge state: 2) is 493.09 ± 3.3 Å² and the collision cross section (charge state: 3) was 531.43 ± 2 Å².

Regarding LSESHPDATEDLQR, the collision cross section (charge state: 3) is on record as 474.77 ± 1.7 Å².

Sequence IQNGAQGIRFIYTR had a collision cross section (charge state: 3) of 511.04 ± 0.58 Å².

With VGVEAKQPNSAIR, the collision cross section is, setting by setting: (charge state: 2) 404.68 ± 1.4 Å²; (charge state: 3) 493.5 ± 7.8 Å².

In turn, SEGFDTYR displayed a collision cross section (charge state: 2) of 330.1 ± 0.73 Å².

With GGPGAPGAPGPKGESGDYK, the collision cross section (charge state: 2) came out at 431.57 ± 1 Å² and the collision cross section (charge state: 3) came out at 489.8 ± 6.1 Å².

Take LFVGGIKEDTEEHHLR: the collision cross section is, setting by setting: (charge state: 2) 486.85 ± 3.6 Å²; (charge state: 3) 544.82 ± 2.6 Å².

As to YSSSSIPEPFGSRGSPR, the collision cross section stood at 433.42 Å² (charge state: 2) and 521.94 ± 0.21 Å² (charge state: 3).

Consider TSYAQHQQVR, for which the collision cross section came to 367.57 ± 0.48 Å² (charge state: 2) and 444.63 ± 0.86 Å² (charge state: 3).

For the sequence TTEETSKPK, the collision cross section runs as follows: (charge state: 2) 341.31 ± 0.82 Å²; (charge state: 3) 430.05 ± 3.7 Å².

Sequence GLPGPPGPQGESR returned a collision cross section (charge state: 2) of 356.03 ± 0.79 Å².

For DTPTSAGPNSFNKGK, the collision cross section runs as follows: (charge state: 2) 410.87 ± 2 Å²; (charge state: 3) 465.77 ± 5.4 Å².

Consider QQETAAAETETR, for which the collision cross section is, setting by setting: (charge state: 2) 373.98 ± 0.14 Å²; (charge state: 3) 456.85 ± 0.22 Å².

Take PGPVGPPGSGGLK: the collision cross section (charge state: 2) came out at 353.19 ± 0.41 Å².

In the case of DLTTAGAVTQCYR, the collision cross section runs as follows: (charge state: 2) 396.98 ± 0.16 Å²; (charge state: 3) 489.14 Å².

On to DHSKPISNPSDNK, for which the collision cross section runs as follows: (charge state: 2) 390.86 ± 0.14 Å²; (charge state: 3) 478.96 ± 0.22 Å².

For the sequence PGSPGPPGSPGPR, the collision cross section runs as follows: (charge state: 2) 347.56 ± 0.41 Å²; (charge state: 3) 430.78 ± 12 Å².

Regarding ISALQGKLSK, the collision cross section runs as follows: (charge state: 2) 353.47 ± 1.4 Å²; (charge state: 3) 435.93 ± 5.2 Å².

For SYHLQIVTK, the collision cross section is 344.3 ± 0.59 Å² (charge state: 2) and 447.43 ± 1.7 Å² (charge state: 3).

The sequence VNALKNLQVK returned a collision cross section (charge state: 2) of 370.39 ± 1.1 Å² and a collision cross section (charge state: 3) of 436.61 ± 6 Å².

In the case of DLGKFQVATDALK, the collision cross section worked out at 413.55 ± 3.7 Å² (charge state: 2) and 498.11 ± 6.1 Å² (charge state: 3).

YADLTEDQLPSCESLK came in with a collision cross section (charge state: 2) of 447.81 ± 1 Å².

GNDISSGTVLSDYVGSGPPK showed a collision cross section (charge state: 2) of 464.77 ± 1 Å².

VDIDVPDVNIEGPDAKLK returned a collision cross section (charge state: 2) of 470.4 ± 2.9 Å² and a collision cross section (charge state: 3) of 542.58 ± 2 Å².
